Data on 2 molecules can be found in US12553037B2, “Engineered class 2, type V repressor systems” (Scribe Therapeutics Inc., priority 2021, dated 2026).

The nature of series [1]: Editing assays comparing gRNA scaffolds 316 and 174.
The next series relates to HBEGF locus. It is filed as cell-based, human. The note with it: abundance of KRAB domain before vs after selection; 2 ng/mL diphtheria toxin for 48 hours; spacer 34.28; HEK293T.

B1: 316 scaffold: chimeric gRNA scaffold, SEQ ID NO: 59352, 89 nucleotides (nucleic acid)
guide: ACUGGCGCUUCUAUCUGAUUACUCUGAGCGCCAUCACCAGCGACUAUGUCGUAGUGGGUAAAGCUCCCUCUUCGGAGGGAGCAUCAGAG
modifications: listed as RNA, further chemistry not given here
As for B1, the “performance in editing assays relative to gRNA scaffold 174” value in series [1] was “perform comparably or more favorably than gRNA scaffold 174”.

B2: DOMAIN_26749: KRAB domain derived from the king cobra, Ophiophagus hannah; SEQ ID NO: 57755 (protein)
chain: STPVTFEDVVVYFTAAEWVHLTNWQRDFYQAVMMETYELVASVAGDGVPMAEDEEGGVERPVWQYIPRGKRRRKTPQPRAD
modifications: Ophiophagus hannah
In the case of B2, the “log2(fold change)” value in the series with HBEGF locus is “highest log2(fold change)”.
